Experiments:
[1] = biological target: Recombinant, his tagged full length human frataxin protein (Abcam ab95502) (human) (UniProt Q16595); assay: Simoa sandwich 3-step; capture Ab-2
[2] = biological target: Recombinant, his tagged full length human frataxin protein (Abcam ab95502) (human) (UniProt Q16595); assay: Simoa sandwich 3-step; capture Ab-1
[3] = biological target: Recombinant, his tagged full length human frataxin protein (Abcam ab95502) (human) (UniProt Q16595); assay: Simoa sandwich 2-step (120 min-5 min); capture Ab-1
[4] = biological target: Recombinant, his tagged full length human frataxin protein (Abcam ab95502) (human) (UniProt Q16595); assay: Simoa sandwich 3-step; capture Ab-4; frataxin 100 pg/mL
[5] = biological target: Recombinant, his tagged full length human frataxin protein (Abcam ab95502) (human) (UniProt Q16595); assay: Simoa sandwich 3-step; capture Ab-2; frataxin 100 pg/mL
[6] = biological target: Recombinant, his tagged full length human frataxin protein (Abcam ab95502) (human) (UniProt Q16595); assay: Simoa sandwich 2-step; capture Ab-2; frataxin 100 pg/mL
[7] = biological target: Recombinant, his tagged full length human frataxin protein (Abcam ab95502) (human) (UniProt Q16595); assay: Simoa sandwich 2-step; capture Ab-2; frataxin 167 pg/mL
[8] = biological target: Recombinant, his tagged full length human frataxin protein (Abcam ab95502) (human) (UniProt Q16595); assay: Simoa sandwich 3-step; capture Ab-3; frataxin 1000 pg/mL
[9] = biological target: Recombinant, his tagged full length human frataxin protein (Abcam ab95502) (human) (UniProt Q16595); assay: Simoa sandwich 3-step; capture Ab-1; frataxin 1000 pg/mL
[10] = biological target: Recombinant, his tagged full length human frataxin protein (Abcam ab95502) (human) (UniProt Q16595); assay: Simoa sandwich 2-step; capture Ab-2; frataxin 18.5 pg/mL
[11] = biological target: Recombinant, his tagged full length human frataxin protein (Abcam ab95502) (human) (UniProt Q16595); assay: Simoa sandwich 3-step; capture Ab-3; frataxin 10000 pg/mL
[12] = biological target: Recombinant, his tagged full length human frataxin protein (Abcam ab95502) (human) (UniProt Q16595); assay: Simoa sandwich 2-step; capture Ab-1; frataxin 0.686 pg/mL
[13] = biological target: Recombinant, his tagged full length human frataxin protein (Abcam ab95502) (human) (UniProt Q16595); assay: Simoa sandwich; capture Ab-1; no helper beads; frataxin 2.06 pg/mL
[14] = biological target: Recombinant, his tagged full length human frataxin protein (Abcam ab95502) (human) (UniProt Q16595); assay: Simoa sandwich 2-step; capture Ab-1; 150 pM SβG; frataxin 500 pg/mL
[15] = biological target: Recombinant, his tagged full length human frataxin protein (Abcam ab95502) (human) (UniProt Q16595); assay: Simoa sandwich 2-step; capture Ab-1; 50 pM SβG; frataxin 6.17 pg/mL
[16] = biological target: Recombinant, his tagged full length human frataxin protein (Abcam ab95502) (human) (UniProt Q16595); assay: Simoa sandwich 2-step (120 min-5 min); capture Ab-1; Diluent 1 + 5% NCS
[17] = biological target: Recombinant, his tagged full length human frataxin protein (Abcam ab95502) (human) (UniProt Q16595); assay: Simoa sandwich 2-step (120 min-5 min); capture Ab-1; frataxin 2000 pg/mL
[18] = biological target: Recombinant, his tagged full length human frataxin protein (Abcam ab95502) (human) (UniProt Q16595); assay: Simoa sandwich 2-step (120 min-5 min); capture Ab-1; frataxin 74.1 pg/mL
[19] = biological target: Recombinant, his tagged full length human frataxin protein (Abcam ab95502) (human) (UniProt Q16595); assay: Simoa sandwich 2-step (35 min-5 min); capture Ab-1; with helper beads; frataxin 18.5 pg/mL
[20] = biological target: Recombinant, his tagged full length human frataxin protein (Abcam ab95502) (human) (UniProt Q16595); assay: Simoa sandwich 2-step (120 min-5 min); capture Ab-1; Diluent 1 + 10% NCS; frataxin 111 pg/mL
[21] = biological target: Recombinant, his tagged full length human frataxin protein (Abcam ab95502) (human) (UniProt Q16595); assay: Simoa sandwich 2-step (120 min-5 min); capture Ab-1; Diluent 1 + 5% NCS; frataxin 1000 pg/mL
[22] = biological target: Recombinant, his tagged full length human frataxin protein (Abcam ab95502) (human) (UniProt Q16595); assay: Simoa sandwich 2-step (120 min-5 min); capture Ab-1; Diluent 1 + 10% NCS; frataxin 22.2 pg/mL
[23] = biological target: Recombinant, his tagged full length human frataxin protein (Abcam ab95502) (human) (UniProt Q16595); assay: Simoa sandwich 2-step (120 min-5 min); capture Ab-1; Diluent 1 + 10% NCS; frataxin 66.7 pg/mL
[24] = biological target: Recombinant, his tagged full length human frataxin protein (Abcam ab95502) (human) (UniProt Q16595); assay: Simoa sandwich 2-step (120 min-5 min); capture Ab-1; Diluent 1 + 10% NCS; frataxin 7.41 pg/mL
[25] = biological target: Recombinant, his tagged full length human frataxin protein (Abcam ab95502) (human) (UniProt Q16595); assay: Simoa sandwich 2-step (120 min-5 min); capture Ab-1; Diluent 1 + 10% NCS; frataxin 4.12 pg/mL

Chain of UniProt Q16595 (Q16595 42-210): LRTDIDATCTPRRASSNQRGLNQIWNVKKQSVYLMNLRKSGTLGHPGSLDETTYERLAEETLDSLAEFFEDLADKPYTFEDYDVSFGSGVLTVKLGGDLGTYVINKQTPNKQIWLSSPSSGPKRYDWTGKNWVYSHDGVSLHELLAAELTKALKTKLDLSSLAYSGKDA

Substance: Ab-3, mouse monoclonal [18A5DB1] to Frataxin (Abcam ab110328) (antibody)
- LOD [1]: 1.33 pg/mL
- LOD [2]: 1.14 pg/mL
- LOD [3]: 0.465 pg/mL
- Ave AEB [4]: 1.05 AEB
- S/B [4]: 21.9
- Ave AEB [5]: 2.03 AEB
- S/B [5]: 45.8
- Ave AEB [6]: 7.14 AEB
- S/B [6]: 88.6
- Ave AEB [7]: 14.1 AEB
- S/B [7]: 148
- Ave AEB [8]: 0.0854 AEB
- S/B [8]: 18.1
- Ave AEB [9]: 17.4 AEB
- S/B [9]: 352
- Ave AEB [10]: 2.15 AEB
- S/B [10]: 22.5
- Ave AEB [11]: 1.06 AEB
- S/B [11]: 224
- Ave AEB [12]: 0.165 AEB
- S/B [12]: 1.59
- AEB Rep1 [13]: 0.0405 AEB
- AEB Rep2 [13]: 0.043 AEB
- Ave AEB [13]: 0.0418 AEB
- S/B [13]: 1.85
- Ave AEB [14]: 23.7 AEB
- S/B [14]: 527
- Ave AEB [15]: 0.194 AEB
- S/B [15]: 10.6
- LOD [16]: 0.419 pg/mL
- AEB rep1 [17]: 9.8 AEB
- AEB rep2 [17]: 10.1 AEB
- AEB rep3 [17]: 9.8 AEB
- Ave AEB [17]: 9.9 AEB
- S/B [17]: 1200
- AEB rep1 [18]: 0.357 AEB
- AEB rep2 [18]: 0.356 AEB
- AEB rep3 [18]: 0.336 AEB
- Ave AEB [18]: 0.35 AEB
- S/B [18]: 42.4
- AEB Rep1 [19]: 1.14 AEB
- AEB Rep2 [19]: 1.19 AEB
- Ave AEB [19]: 1.16 AEB
- S/B [19]: 47.8
- Ave AEB [20]: 0.515 AEB
- S/B [20]: 48
- Ave AEB [21]: 8.95 AEB
- S/B [21]: 815
- Ave AEB [22]: 0.2 AEB
- S/B [22]: 11
- Ave AEB [23]: 0.602 AEB
- S/B [23]: 33.1
- Ave AEB [24]: 0.0923 AEB
- S/B [24]: 5.08
- Ave AEB [25]: 0.0283 AEB
- S/B [25]: 2.63

From patent US20220308072A1
